Source: the supplement of paper PMC9112550, “Optimization of the antimicrobial peptide Bac7 by deep mutational scanning” (BMC Biology, 2022)

test system: Escherichia coli TOP10; experiment: shrunken log2 fold change of peptide-encoding DNA abundance (4.5 h post-induction vs induction); higher = less antimicrobial activity (less host growth inhibition); details: time post-induction: 4.5 h; library: site-saturation at positions 5, 18, 19, 20
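Further: peptides expressed intracellularly from a pBAD plasmid library in pooled LB shake-flask culture, induced with 0.3% L-arabinose, DNA abundance read by NGS, three biological replicates, DESeq2 with apeglm shrinkage.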

Row | Sequence | shrunken log2 fold change
1 | RRIRLRPPRLPRPRPRPHIRPRP | -0.108
2 | RRIRLRPPRLPRPRPRPHIVPRP | -0.105
3 | RRIRLRPPRLPRPRPRPHKCPRP | -0.0456
4 | RRIRLRPPRLPRPRPRPHKSPRP | -0.399
5 | RRIRLRPPRLPRPRPRPHLNPRP | 0.141
6 | RRIRLRPPRLPRPRPRPHMLPRP | -0.264
7 | RRIRLRPPRLPRPRPRPHNYPRP | -0.749
8 | RRIRLRPPRLPRPRPRPHPKPRP | -0.0255
9 | RRIRLRPPRLPRPRPRPHQCPRP | 0.0182
10 | RRIRLRPPRLPRPRPRPHQVPRP | 0.00465
11 | RRIRLRPPRLPRPRPRPHQYPRP | -0.297
12 | RRIRLRPPRLPRPRPRPHRPPRP | -0.189
13 | RRIRLRPPRLPRPRPRPHRQPRP | 0.115
14 | RRIRLRPPRLPRPRPRPHTHPRP | -0.441
15 | RRIRLRPPRLPRPRPRPHVMPRP | -0.266
16 | RRIRLRPPRLPRPRPRPHYIPRP | -0.615
17 | RRIRLRPPRLPRPRPRPIALPRP | -0.0572
18 | RRIRLRPPRLPRPRPRPIASPRP | -0.0599
19 | RRIRLRPPRLPRPRPRPICCPRP | -0.205
20 | RRIRLRPPRLPRPRPRPICEPRP | 0.0628
21 | RRIRLRPPRLPRPRPRPICFPRP | 0.104
22 | RRIRLRPPRLPRPRPRPICMPRP | -0.456
23 | RRIRLRPPRLPRPRPRPIDYPRP | -0.0867
24 | RRIRLRPPRLPRPRPRPIFFPRP | 0.103
25 | RRIRLRPPRLPRPRPRPIFNPRP | -0.221

Row | Sequence | shrunken log2 fold change
26 | RRIRLRPPRLPRPRPRPIFYPRP | -0.223
27 | RRIRLRPPRLPRPRPRPIHEPRP | 0.139
28 | RRIRLRPPRLPRPRPRPIHSPRP | -1.61
29 | RRIRLRPPRLPRPRPRPILGPRP | -0.0186
30 | RRIRLRPPRLPRPRPRPILMPRP | 0.0581
31 | RRIRLRPPRLPRPRPRPIMAPRP | 0.0391
32 | RRIRLRPPRLPRPRPRPIMGPRP | -0.0219
33 | RRIRLRPPRLPRPRPRPINEPRP | -0.0016
34 | RRIRLRPPRLPRPRPRPIPNPRP | -0.135
35 | RRIRLRPPRLPRPRPRPIQAPRP | 0.0789
36 | RRIRLRPPRLPRPRPRPIQSPRP | -0.0832
37 | RRIRLRPPRLPRPRPRPIRHPRP | -0.144
38 | RRIRLRPPRLPRPRPRPIRIPRP | -0.379
39 | RRIRLRPPRLPRPRPRPISLPRP | -0.36
40 | RRIRLRPPRLPRPRPRPISMPRP | -0.801
41 | RRIRLRPPRLPRPRPRPISRPRP | 0.0488
42 | RRIRLRPPRLPRPRPRPIVCPRP | 0.0348
43 | RRIRLRPPRLPRPRPRPIVVPRP | -0.0319
44 | RRIRLRPPRLPRPRPRPIYSPRP | 0.0408
45 | RRIRLRPPRLPRPRPRPKARPRP | -0.00543
46 | RRIRLRPPRLPRPRPRPKDLPRP | -0.242
47 | RRIRLRPPRLPRPRPRPKERPRP | -0.00664
48 | RRIRLRPPRLPRPRPRPKEWPRP | 0.157
49 | RRIRLRPPRLPRPRPRPKFIPRP | -0.304
50 | RRIRLRPPRLPRPRPRPKFKPRP | -0.147

Row | Sequence | shrunken log2 fold change
51 | RRIRLRPPRLPRPRPRPKFMPRP | 0.149
52 | RRIRLRPPRLPRPRPRPKGMPRP | -0.0948
53 | RRIRLRPPRLPRPRPRPKGPPRP | 0.28
54 | RRIRLRPPRLPRPRPRPKHGPRP | -0.0363
55 | RRIRLRPPRLPRPRPRPKIWPRP | -0.0443
56 | RRIRLRPPRLPRPRPRPKLQPRP | 0.356
57 | RRIRLRPPRLPRPRPRPKMWPRP | 0.485
58 | RRIRLRPPRLPRPRPRPKMYPRP | -0.14
59 | RRIRLRPPRLPRPRPRPKNFPRP | 0.492
60 | RRIRLRPPRLPRPRPRPKNTPRP | -0.333
61 | RRIRLRPPRLPRPRPRPKPIPRP | 0.111
62 | RRIRLRPPRLPRPRPRPKPMPRP | 0.964
63 | RRIRLRPPRLPRPRPRPKQKPRP | 0.0979
64 | RRIRLRPPRLPRPRPRPKQNPRP | 0.2
65 | RRIRLRPPRLPRPRPRPKQSPRP | -0.00745
66 | RRIRLRPPRLPRPRPRPKRCPRP | -0.0395
67 | RRIRLRPPRLPRPRPRPKSLPRP | -0.467
68 | RRIRLRPPRLPRPRPRPKTGPRP | 0.25
69 | RRIRLRPPRLPRPRPRPKVEPRP | -0.0879
70 | RRIRLRPPRLPRPRPRPKVKPRP | -0.0219
71 | RRIRLRPPRLPRPRPRPKVPPRP | 0.0509
72 | RRIRLRPPRLPRPRPRPKYWPRP | -0.131
73 | RRIRLRPPRLPRPRPRPLAIPRP | 0.221
74 | RRIRLRPPRLPRPRPRPLCTPRP | 0.0663
75 | RRIRLRPPRLPRPRPRPLDAPRP | 0.112

Row | Sequence | shrunken log2 fold change
76 | RRIRLRPPRLPRPRPRPLDQPRP | 0.105
77 | RRIRLRPPRLPRPRPRPLDWPRP | 0.124
78 | RRIRLRPPRLPRPRPRPLEQPRP | 0.0155
79 | RRIRLRPPRLPRPRPRPLFHPRP | -0.233
80 | RRIRLRPPRLPRPRPRPLHAPRP | 0.261
81 | RRIRLRPPRLPRPRPRPLHSPRP | -0.0843
82 | RRIRLRPPRLPRPRPRPLKYPRP | -0.0803
83 | RRIRLRPPRLPRPRPRPLLTPRP | 0.0657
84 | RRIRLRPPRLPRPRPRPLMGPRP | -0.0491
85 | RRIRLRPPRLPRPRPRPLNCPRP | -0.156
86 | RRIRLRPPRLPRPRPRPLQHPRP | 0.212
87 | RRIRLRPPRLPRPRPRPLQTPRP | 0.101
88 | RRIRLRPPRLPRPRPRPLSIPRP | -0.722
89 | RRIRLRPPRLPRPRPRPLSLPRP | -0.145
90 | RRIRLRPPRLPRPRPRPLVNPRP | -0.346
91 | RRIRLRPPRLPRPRPRPLVQPRP | -0.0853
92 | RRIRLRPPRLPRPRPRPMAQPRP | -0.00088
93 | RRIRLRPPRLPRPRPRPMDMPRP | -0.384
94 | RRIRLRPPRLPRPRPRPMDNPRP | -1.1
95 | RRIRLRPPRLPRPRPRPMEPPRP | 0.101
96 | RRIRLRPPRLPRPRPRPMEQPRP | 0.168
97 | RRIRLRPPRLPRPRPRPMETPRP | 0.483
98 | RRIRLRPPRLPRPRPRPMEYPRP | 0.015
99 | RRIRLRPPRLPRPRPRPMHWPRP | 0.0928
100 | RRIRLRPPRLPRPRPRPMHYPRP | -0.094

Row | Sequence | shrunken log2 fold change
101 | RRIRLRPPRLPRPRPRPMKCPRP | 0.131
102 | RRIRLRPPRLPRPRPRPMKMPRP | -0.409
103 | RRIRLRPPRLPRPRPRPMLGPRP | 0.0421
104 | RRIRLRPPRLPRPRPRPMLKPRP | -0.295
105 | RRIRLRPPRLPRPRPRPMLTPRP | 0.0606
106 | RRIRLRPPRLPRPRPRPMMDPRP | -0.0843
107 | RRIRLRPPRLPRPRPRPMNFPRP | -0.102
108 | RRIRLRPPRLPRPRPRPMNKPRP | -0.504
109 | RRIRLRPPRLPRPRPRPMNNPRP | -0.604
110 | RRIRLRPPRLPRPRPRPMNSPRP | -0.406
111 | RRIRLRPPRLPRPRPRPMNWPRP | 0.134
112 | RRIRLRPPRLPRPRPRPMPHPRP | 0.0155
113 | RRIRLRPPRLPRPRPRPMPPPRP | 0.15
114 | RRIRLRPPRLPRPRPRPMQLPRP | -0.21
115 | RRIRLRPPRLPRPRPRPMSCPRP | 0.0448
116 | RRIRLRPPRLPRPRPRPMSSPRP | 0.0128
117 | RRIRLRPPRLPRPRPRPMWTPRP | -0.0582
118 | RRIRLRPPRLPRPRPRPNCCPRP | -0.0382
119 | RRIRLRPPRLPRPRPRPNFDPRP | 0.0771
120 | RRIRLRPPRLPRPRPRPNFYPRP | -0.141
121 | RRIRLRPPRLPRPRPRPNGNPRP | -0.218
122 | RRIRLRPPRLPRPRPRPNHDPRP | -0.333
123 | RRIRLRPPRLPRPRPRPNHWPRP | 0.0994
124 | RRIRLRPPRLPRPRPRPNITPRP | -0.327
125 | RRIRLRPPRLPRPRPRPNLAPRP | -0.0506

Row | Sequence | shrunken log2 fold change
126 | RRIRLRPPRLPRPRPRPNLFPRP | -0.0622
127 | RRIRLRPPRLPRPRPRPNMAPRP | -0.511
128 | RRIRLRPPRLPRPRPRPNMEPRP | 0.116
129 | RRIRLRPPRLPRPRPRPNMIPRP | -0.571
130 | RRIRLRPPRLPRPRPRPNMKPRP | -0.173
131 | RRIRLRPPRLPRPRPRPNMQPRP | -0.171
132 | RRIRLRPPRLPRPRPRPNPGPRP | -0.213
133 | RRIRLRPPRLPRPRPRPNQLPRP | -0.407
134 | RRIRLRPPRLPRPRPRPNRMPRP | 1.82
135 | RRIRLRPPRLPRPRPRPNSQPRP | -0.32
136 | RRIRLRPPRLPRPRPRPNVSPRP | -0.0595
137 | RRIRLRPPRLPRPRPRPNWMPRP | -0.296
138 | RRIRLRPPRLPRPRPRPNYDPRP | -0.372
139 | RRIRLRPPRLPRPRPRPNYHPRP | -0.536
140 | RRIRLRPPRLPRPRPRPPCFPRP | 0.242
141 | RRIRLRPPRLPRPRPRPPCHPRP | -0.178
142 | RRIRLRPPRLPRPRPRPPCIPRP | -0.519
143 | RRIRLRPPRLPRPRPRPPDTPRP | 0.257
144 | RRIRLRPPRLPRPRPRPPELPRP | 0.389
145 | RRIRLRPPRLPRPRPRPPESPRP | 0.367
146 | RRIRLRPPRLPRPRPRPPETPRP | 0.0221
147 | RRIRLRPPRLPRPRPRPPGNPRP | 0.303
148 | RRIRLRPPRLPRPRPRPPGQPRP | 0.625
149 | RRIRLRPPRLPRPRPRPPGVPRP | 0.426
150 | RRIRLRPPRLPRPRPRPPHDPRP | 0.397
